Reference: US20170360893A1 (Merck Sharp & Dohme, published 2017)
*1 amine or outer side, *2 acyl side, *3 side chain or, on linkers, in order; H or OH if unused. Where no end group is shown, it is not given here. Side-chain parts run from the residue outwards. [ ]: non-standard residue; d: D form. The star is where a group is joined. γGlu = O=C(O)[C@H](CCC(=O)[*:2])N[*:1]; Palmitoyl = CCCCCCCCCCCCCCCC(=O)*

B1: Co-agonist Peptide 11 (peptide)
peptide: H[dS]QGTFTSDK([γGlu-γGlu-Palmitoyl])SLYLDERAAQDFVQWLLDT-NH2
modifications: N-terminus assumed
SMILES: CCCCCCCCCCCCCCCC(=O)N[C@@H](CCC(=O)N[C@@H](CCC(=O)NCCCC[C@H](NC(=O)[C@H](CC(=O)O)NC(=O)[C@H](CO)NC(=O)[C@@H](NC(=O)[C@H](Cc1ccccc1)NC(=O)[C@@H](NC(=O)CNC(=O)[C@H](CCC(N)=O)NC(=O)[C@@H](CO)NC(=O)[C@@H](N)Cc1c[nH]cn1)[C@@H](C)O)[C@@H](C)O)C(=O)N[C@@H](CO)C(=O)N[C@@H](CC(C)C)C(=O)N[C@@H](Cc1ccc(O)cc1)C(=O)N[C@@H](CC(C)C)C(=O)N[C@@H](CC(=O)O)C(=O)N[C@@H](CCC(=O)O)C(=O)N[C@@H](CCCNC(=N)N)C(=O)N[C@@H](C)C(=O)N[C@@H](C)C(=O)N[C@@H](CCC(N)=O)C(=O)N[C@@H](CC(=O)O)C(=O)N[C@@H](Cc1ccccc1)C(=O)N[C@H](C(=O)N[C@@H](CCC(N)=O)C(=O)N[C@@H](Cc1c[nH]c2ccccc12)C(=O)N[C@@H](CC(C)C)C(=O)N[C@@H](CC(C)C)C(=O)N[C@@H](CC(=O)O)C(=O)N[C@H](C(N)=O)[C@@H](C)O)C(C)C)C(=O)O)C(=O)O
B2: Co-agonist Peptide 5 (peptide)
peptide: H[dS]QGTFTSDK([γGlu-γGlu-Palmitoyl])SKYLDARAAQDFVQWLLDT-NH2
modifications: N-terminus assumed
SMILES: CCCCCCCCCCCCCCCC(=O)N[C@@H](CCC(=O)N[C@@H](CCC(=O)NCCCC[C@H](NC(=O)[C@H](CC(=O)O)NC(=O)[C@H](CO)NC(=O)[C@@H](NC(=O)[C@H](Cc1ccccc1)NC(=O)[C@@H](NC(=O)CNC(=O)[C@H](CCC(N)=O)NC(=O)[C@@H](CO)NC(=O)[C@@H](N)Cc1c[nH]cn1)[C@@H](C)O)[C@@H](C)O)C(=O)N[C@@H](CO)C(=O)N[C@@H](CCCCN)C(=O)N[C@@H](Cc1ccc(O)cc1)C(=O)N[C@@H](CC(C)C)C(=O)N[C@@H](CC(=O)O)C(=O)N[C@@H](C)C(=O)N[C@@H](CCCNC(=N)N)C(=O)N[C@@H](C)C(=O)N[C@@H](C)C(=O)N[C@@H](CCC(N)=O)C(=O)N[C@@H](CC(=O)O)C(=O)N[C@@H](Cc1ccccc1)C(=O)N[C@H](C(=O)N[C@@H](CCC(N)=O)C(=O)N[C@@H](Cc1c[nH]c2ccccc12)C(=O)N[C@@H](CC(C)C)C(=O)N[C@@H](CC(C)C)C(=O)N[C@@H](CC(=O)O)C(=O)N[C@H](C(N)=O)[C@@H](C)O)C(C)C)C(=O)O)C(=O)O
B3: Co-agonist Peptide 9 (peptide)
peptide: HXQGTXTSDKSKYLDERAAQDFVQWLLDT
modifications: X2 = D-Ser; X6 = p-fluoro phenylalanine (pFF); K10 conjugated to γEγEC16; C-terminal amide
B4: Co-agonist Peptide 1 (peptide)
peptide: H[dS]QGTFTSDK([γGlu-Palmitoyl])SKYLDARAAQDFVQWLLDT-NH2
modifications: N-terminus assumed
SMILES: CCCCCCCCCCCCCCCC(=O)N[C@@H](CCC(=O)NCCCC[C@H](NC(=O)[C@H](CC(=O)O)NC(=O)[C@H](CO)NC(=O)[C@@H](NC(=O)[C@H](Cc1ccccc1)NC(=O)[C@@H](NC(=O)CNC(=O)[C@H](CCC(N)=O)NC(=O)[C@@H](CO)NC(=O)[C@@H](N)Cc1c[nH]cn1)[C@@H](C)O)[C@@H](C)O)C(=O)N[C@@H](CO)C(=O)N[C@@H](CCCCN)C(=O)N[C@@H](Cc1ccc(O)cc1)C(=O)N[C@@H](CC(C)C)C(=O)N[C@@H](CC(=O)O)C(=O)N[C@@H](C)C(=O)N[C@@H](CCCNC(=N)N)C(=O)N[C@@H](C)C(=O)N[C@@H](C)C(=O)N[C@@H](CCC(N)=O)C(=O)N[C@@H](CC(=O)O)C(=O)N[C@@H](Cc1ccccc1)C(=O)N[C@H](C(=O)N[C@@H](CCC(N)=O)C(=O)N[C@@H](Cc1c[nH]c2ccccc12)C(=O)N[C@@H](CC(C)C)C(=O)N[C@@H](CC(C)C)C(=O)N[C@@H](CC(=O)O)C(=O)N[C@H](C(N)=O)[C@@H](C)O)C(C)C)C(=O)O
B5: Co-agonist Peptide 12 (peptide)
peptide: HXQGTFTSDXSKYLDARAAQDFVQWLLDT
modifications: X2 = D-Ser; X10 = para-aminomethyl phenylalanine (pAF) conjugated to γEγEC16; C-terminal amide
B6: Co-agonist Peptide 8 (peptide)
peptide: H[dS]QGTFTSDK([γGlu-γGlu-Palmitoyl])SKYLEARAAQDFVQWLLDT-NH2
modifications: N-terminus assumed
SMILES: CCCCCCCCCCCCCCCC(=O)N[C@@H](CCC(=O)N[C@@H](CCC(=O)NCCCC[C@H](NC(=O)[C@H](CC(=O)O)NC(=O)[C@H](CO)NC(=O)[C@@H](NC(=O)[C@H](Cc1ccccc1)NC(=O)[C@@H](NC(=O)CNC(=O)[C@H](CCC(N)=O)NC(=O)[C@@H](CO)NC(=O)[C@@H](N)Cc1c[nH]cn1)[C@@H](C)O)[C@@H](C)O)C(=O)N[C@@H](CO)C(=O)N[C@@H](CCCCN)C(=O)N[C@@H](Cc1ccc(O)cc1)C(=O)N[C@@H](CC(C)C)C(=O)N[C@@H](CCC(=O)O)C(=O)N[C@@H](C)C(=O)N[C@@H](CCCNC(=N)N)C(=O)N[C@@H](C)C(=O)N[C@@H](C)C(=O)N[C@@H](CCC(N)=O)C(=O)N[C@@H](CC(=O)O)C(=O)N[C@@H](Cc1ccccc1)C(=O)N[C@H](C(=O)N[C@@H](CCC(N)=O)C(=O)N[C@@H](Cc1c[nH]c2ccccc12)C(=O)N[C@@H](CC(C)C)C(=O)N[C@@H](CC(C)C)C(=O)N[C@@H](CC(=O)O)C(=O)N[C@H](C(N)=O)[C@@H](C)O)C(C)C)C(=O)O)C(=O)O
B7: Co-agonist Peptide 10 (peptide)
peptide: HXQGTFTSDKSKYLDERAAQDFVQWLXDT
modifications: X2 = D-Ser; K10 conjugated to γEγEC16; X27 = methionine sulfone; C-terminal amide

biological target: human glucagon receptor (human, UniProt P47871 26-477); test: cell-based or functional assay
Sequence (P47871 26-477): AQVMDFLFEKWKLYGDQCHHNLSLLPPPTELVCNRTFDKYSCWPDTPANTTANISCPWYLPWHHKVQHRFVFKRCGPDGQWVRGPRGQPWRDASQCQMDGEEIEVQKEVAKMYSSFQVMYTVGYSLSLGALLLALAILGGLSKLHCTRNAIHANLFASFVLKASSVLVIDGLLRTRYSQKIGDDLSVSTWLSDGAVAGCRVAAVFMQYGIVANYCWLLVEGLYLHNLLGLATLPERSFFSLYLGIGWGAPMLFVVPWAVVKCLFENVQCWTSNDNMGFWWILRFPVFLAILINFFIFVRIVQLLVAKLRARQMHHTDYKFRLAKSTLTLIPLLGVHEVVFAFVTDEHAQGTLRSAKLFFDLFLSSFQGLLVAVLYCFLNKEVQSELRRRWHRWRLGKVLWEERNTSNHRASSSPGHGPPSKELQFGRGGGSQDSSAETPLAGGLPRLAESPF

Binder | GCGR EC50 (nM) human; cAMP production (HitHunter cAMP XS) in cells expressing human GCGR, 20% human serum [nM]
B1 | 0.06
B2 | 0.03
Ac-HAQGTFTSDK([γGlu-γGlu-C16])SKYLDERAAQDFVQWLLDT-NH2 [Co-agonist Peptide 7] | 0.07
B3 | 0.05
B4 | 0.042
B5 | 0.05
B6 | 0.02
B7 | 0.02
HXQGTFTSDKSKYLDERAAQDFVQWLLDT (X2 = D-Ser; K10 conjugated to γEγEC16; C-terminal amide) [Comparator Co-agonist Peptide 6] | 0.009

biological target: human glucagon-like peptide 1 receptor (human, UniProt P43220 24-463); test: cell-based or functional assay

Binder | GLPR1 EC50 (nM) human; cAMP production (HitHunter cAMP XS) in cells expressing human GLP-1R, 20% human serum [nM]
B1 | 0.06
B2 | 0.033
Ac-HAQGTFTSDK([γGlu-γGlu-C16])SKYLDERAAQDFVQWLLDT-NH2 [Co-agonist Peptide 7] | 0.07
B3 | 0.06
B4 | 0.048
B5 | 0.05
B6 | 0.02
B7 | 0.02
HXQGTFTSDKSKYLDERAAQDFVQWLLDT (X2 = D-Ser; K10 conjugated to γEγEC16; C-terminal amide) [Comparator Co-agonist Peptide 6] | 0.007
